{
  "source": "paper PMC9022012",
  "about": "(Journal of immunology (Baltimore, Md. : 1950), 2020)",
  "key": {"HLA-DRB4 (DRB4*01:01)": {"biological_target": "HLA-DRB4 (DRB4*01:01) (Homo sapiens, UniProt P01903+P13762, G164S)", "assay": "Competitive ELISA HLA class II peptide-binding assay, DRB4*01:01"}, "[1]": {"biological_target": "HLA-DQ8 (DQA1*03:01/DQB1*03:02) (Homo sapiens, UniProt P01909+P01920, A209T/A45G/C70Q/D89A/DUP78-78/E183D/E77G/F237L/G63E/H199R/I129T/K197E/L178F/L74F/L98V/Q57E/Q76R/S185I/S97I/T217I/T49S/V73L/Y58L)", "assay": "Competitive ELISA HLA class II peptide-binding assay, DQ8"}, "[2]": {"biological_target": "HLA-DQ2 (DQA1*05:01/DQB1*02:01) (Homo sapiens, UniProt P01909+P01920, A45G/A70V/D89A/E106A/E77G/E98D/H199R/L107V/N214S/P84L/P87L/T103K/T109R/T172A/T60S/V78E/V99I/Y58L/Y62S/Y69I/Y79F)", "assay": "Competitive ELISA HLA class II peptide-binding assay, DQ2"}, "HLA-DR3 (DRB1*03:01)": {"biological_target": "HLA-DR3 (DRB1*03:01) (Homo sapiens, UniProt P01903+P01911, A100K/A102G/A103R/A169T/F55Y/I96L/K41T/L162R/M171V/P40S/Q125H/Q178H/Q39Y/R42S/S66N/T106N/T262R/W38E/Y61H)", "assay": "Competitive ELISA HLA class II peptide-binding assay, DRB1*03:01"}, "HLA-DR4 (DRB1*04:01)": {"biological_target": "HLA-DR4 (DRB1*04:01) (Homo sapiens, UniProt P01903+P01911, A100K/A169T/F76Y/I96L/K127E/L162R/M171V/N62H/P40V/Q125Y/R42H/S133A/S149N/S66Y/V115G/V209L/W38E)", "assay": "Competitive ELISA HLA class II peptide-binding assay, DRB1*04:01"}, "[3]": {"biological_target": "T1, proinsulin (B-chain) peptide on HLA-DQA1*05:01 / HLA-DQB1*02:01 (human)", "T1 peptide": "VCGERGFFY", "assay": "proliferation"}, "[4]": {"biological_target": "T2, proinsulin (C-peptide) peptide on HLA-DQA1*05:01 / HLA-DQB1*02:01 (human)", "T2 peptide": "SLQPLALEGSLQ", "assay": "proliferation"}, "[5]": {"biological_target": "T3, proinsulin (C-peptide) peptide on HLA-DRA*01:01 / HLA-DRB1*04:01 (human)", "T3 peptide": "SLQPLALEGSL", "assay": "proliferation"}, "[6]": {"biological_target": "T4, proinsulin (C-peptide) peptide on HLA-DRA*01:01 / HLA-DRB1*04:04 (human)", "T4 peptide": "PLALEGSLQ", "assay": "proliferation"}, "[7]": {"biological_target": "T5, proinsulin (C-peptide) peptide on HLA-DRA*01:01 / HLA-DRB1*04:04 (human)", "T5 peptide": "PLALEGSLQK", "assay": "proliferation"}, "[8]": {"biological_target": "T6, proinsulin (B-chain) peptide on HLA-DQA1*05:01 / HLA-DQB1*02:01 (human)", "T6 peptide": "ALYLVCGERG", "assay": "proliferation"}, "[9]": {"biological_target": "T7, proinsulin (C-peptide) peptide on HLA-DQA1*03:01 / HLA-DQB1*03:02 (human)", "T7 peptide": "GGPGAGSLQPL", "assay": "proliferation"}, "[10]": {"biological_target": "T8, proinsulin (C-peptide) peptide on HLA-DRA*01:01 / HLA-DRB1*03:01 (human)", "T8 peptide": "QPLALEGSLQKR", "assay": "proliferation"}},
  "note": "No end group written: not given here.",
  "data": [
    {"molecule": "CC[C@H](C)[C@H](NC(=O)[C@@H](NC(=O)[C@H](C)NC(=O)[C@H](CCCCN)NC(=O)[C@H](CC(=O)O)NC(=O)[C@@H](NC(=O)[C@H](CCC(=O)O)NC(=O)[C@@H](NC(=O)[C@H](C)NC(=O)[C@H](CC(C)C)NC(=O)[C@H](CC(C)C)NC(=O)[C@H](CC(=O)O)NC(=O)CNC(=O)[C@H](C)N)[C@@H](C)CC)[C@@H](C)O)[C@@H](C)O)C(=O)O", "note": "[E2/E7]", "values": [
      {"measurement": "IC50", "setting": "HLA-DRB4 (DRB4*01:01)", "value": 63, "unit": "nM"}
    ]},
    {"molecule": "ADVEVYRAVTPLGPPD [DQB45-57, reference compound]", "values": [
      {"measurement": "IC50", "setting": "[1]", "value": 730, "unit": "nM"}
    ]},
    {"molecule": "B11-25: overlapping proinsulin peptide (15-mer) (LVEALYLVCGERGFF; UniProt P01308 35-49, looked up, fragment) [Peptide B11-25]", "values": [
      {"measurement": "binding affinity to DQ8, in words", "setting": "[1]", "value": "moderate to high"},
      {"measurement": "binding affinity to DQ2, in words", "setting": "[2]", "value": "moderate (binding ratio below 100 (moderate binding))"}
    ]},
    {"molecule": "B14-28: overlapping proinsulin peptide (15-mer) (ALYLVCGERGFFYTP; UniProt P01308 38-52, looked up, fragment) [Peptide B14-28]", "values": [
      {"measurement": "binding affinity to DQ8, in words", "setting": "[1]", "value": "moderate to high"},
      {"measurement": "binding affinity to DQ2, in words", "setting": "[2]", "value": "did not show detectable binding affinity"}
    ]},
    {"molecule": "B17-C1: overlapping proinsulin peptide (15-mer) (LVCGERGFFYTPKTR; UniProt P01308 41-55, looked up, fragment) [Peptide B17-C1]", "values": [
      {"measurement": "binding affinity to DQ2, in words", "setting": "[2]", "value": "did not show detectable binding affinity"}
    ]},
    {"molecule": "B20-C4: overlapping proinsulin peptide (15-mer) (GERGFFYTPKTRREA; UniProt P01308 44-58, looked up, fragment) [Peptide B20-C4]", "values": [
      {"measurement": "binding affinity to DRB1*03:01, in words", "setting": "HLA-DR3 (DRB1*03:01)", "value": "high (below 10 (high binding))"}
    ]},
    {"molecule": "C13-27: overlapping proinsulin peptide (15-mer) (ELGGGPGAGSLQPLA; UniProt P01308 67-81, looked up, fragment) [Peptide C13-27]", "values": [
      {"measurement": "binding affinity to DQ8, in words", "setting": "[1]", "value": "did not show detectable binding affinity"}
    ]},
    {"molecule": "C16-30: overlapping proinsulin peptide (15-mer) (GGPGAGSLQPLALEG; UniProt P01308 70-84, looked up, fragment) [Peptide C16-30]", "values": [
      {"measurement": "binding affinity to DQ8, in words", "setting": "[1]", "value": "did not show detectable binding affinity"}
    ]},
    {"molecule": "C19-33: overlapping proinsulin peptide (15-mer) (GAGSLQPLALEGSLQ; UniProt P01308 73-87, looked up, fragment) [Peptide C19-33]", "values": [
      {"measurement": "binding affinity to DRB1*04:01, in words", "setting": "HLA-DR4 (DRB1*04:01)", "value": "abrogated"},
      {"measurement": "binding affinity to DRB1*03:01, in words", "setting": "HLA-DR3 (DRB1*03:01)", "value": "abrogated"},
      {"measurement": "binding affinity to DQ8, in words", "setting": "[1]", "value": "moderate to high"},
      {"measurement": "binding affinity to DQ2, in words", "setting": "[2]", "value": "moderate (binding ratio below 100 (moderate binding))"}
    ]},
    {"molecule": "GIVEQCCTSICSLYQ [Peptide A1-15]", "values": [
      {"measurement": "binding affinity to DQ8, in words", "setting": "[1]", "value": "moderate to high"},
      {"measurement": "binding affinity to DQ2, in words", "setting": "[2]", "value": "moderate to high"}
    ]},
    {"molecule": "Clone 19 (TCR) alpha TRAV29 TRAJ33 CDR3: CAASPSDSNYQLIW beta TRBV7-2 TRBJ1-1 CDR3: CASSFRRGSMNTEAFF", "values": [
      {"measurement": "binding result", "setting": "[3]", "value": "recognises"}
    ]},
    {"molecule": "Clone 22 (TCR) alpha TRAV2 TRAJ8 CDR3: CAVEDHGTGFQKLVF beta TRBV4-3 TRBJ2-3 CDR3: CASSQETGPTQYF", "values": [
      {"measurement": "binding result", "setting": "[4]", "value": "recognises"}
    ]},
    {"molecule": "Clone 13 (TCR) alpha TRAV17 TRAJ11 CDR3: CATALISGYSTLTF beta TRBV12-3 TRBJ2-1 CDR3: CASRQQGVGYNEQFF", "values": [
      {"measurement": "binding result", "setting": "[5]", "value": "recognises"}
    ]},
    {"molecule": "Clone 2 (TCR) alpha TRAV13-1 TRAJ17 CDR3: CAASSKAAGNKLTF beta TRBV6-1 TRBJ1-2 CDR3: CASSMTQGLDYGYTF", "values": [
      {"measurement": "binding result", "setting": "[6]", "value": "recognises"}
    ]},
    {"molecule": "Clone 3 (TCR) alpha TRAV19 TRAJ49 CDR3: CALSDRTGNQFYF beta TRBV9 TRBJ1-2 CDR3: CASRLSGTNIPPTYGYTF", "values": [
      {"measurement": "binding result", "setting": "[7]", "value": "recognises"}
    ]},
    {"molecule": "Clone 24 (TCR) alpha TRAV8-2 TRAJ20 CDR3: CAVSEAYKLSF beta TRBV5-8 TRBJ2-5 CDR3: CASTEGIQETQYF", "values": [
      {"measurement": "binding result", "setting": "[8]", "value": "recognises"}
    ]},
    {"molecule": "Clone 23 (TCR) alpha TRAV12-3 TRAJ33 CDR3: CAMSARSNYQLIW beta TRBV4-3 TRBJ2-3 CDR3: CASSKMGPRTDTQYF", "values": [
      {"measurement": "binding result", "setting": "[9]", "value": "recognises"}
    ]},
    {"molecule": "Clone 11 (TCR) alpha TRAV13-1 TRAJ47 CDR3: CAAMCKLVF beta TRBV18 TRBJ1-2 CDR3: CASSPDRQGVEYTF", "values": [
      {"measurement": "binding result", "setting": "[10]", "value": "recognises"}
    ]},
    {"molecule": "Clone 1 (TCR) alpha TRAV41 TRAJ49 CDR3: CAASNTGNQFYF beta TRBV14 TRBJ2-7 CDR3: CASSQALAGVAEQYF", "values": [
      {"measurement": "binding result", "setting": "[7]", "value": "recognises"}
    ]}
  ]
}
